2 substances from patent publication US20050049402A1 can be followed below.

Test [1] has as its target monkey (cynomolgous macaque) GST-TNFα (cynomolgous macaque) (UniProt P79337). Nature of the test: ELISA, plate coated with 2 µg/ml monkey (cynomolgus macaque) GST-TNFα, HRP goat anti-human IgG detection. A general note: ELISA stands for enzyme-linked immunosorbent assay.
For test [2], the target named is human TNFα (Tumor Necrosis Factor-alpha), soluble (human) (UniProt P01375). Nature of the test: cell-based or functional assay.
Test [3] has as its target transmembrane mutant TNFα expressed on the surface of CHO cells (UniProt P01375). Nature of the test: cell-based or functional assay.

human TNFα (Tumor Necrosis Factor-alpha), soluble (human), sequence (P01375 77-233): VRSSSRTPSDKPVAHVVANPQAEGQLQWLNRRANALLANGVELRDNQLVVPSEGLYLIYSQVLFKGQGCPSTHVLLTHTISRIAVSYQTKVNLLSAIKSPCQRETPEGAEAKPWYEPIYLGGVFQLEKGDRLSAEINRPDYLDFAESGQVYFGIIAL
transmembrane mutant TNFα expressed on the surface of CHO cells, sequence (P01375 whole entry, change not shown, form in doubt): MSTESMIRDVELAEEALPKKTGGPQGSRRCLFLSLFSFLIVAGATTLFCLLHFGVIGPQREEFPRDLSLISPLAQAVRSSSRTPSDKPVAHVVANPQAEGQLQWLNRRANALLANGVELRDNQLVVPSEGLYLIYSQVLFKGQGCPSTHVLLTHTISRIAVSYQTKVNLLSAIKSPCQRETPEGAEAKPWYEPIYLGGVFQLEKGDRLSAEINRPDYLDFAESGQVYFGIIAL
monkey (cynomolgous macaque) GST-TNFα (cynomolgous macaque), sequence (P79337 77-233): as the sequence (P01375 77-233) above, with L37V, R44T, T72N, R138L counted along it

In the case of Etanercept (Fc fusion), the EC50 (read off the curve) – broadly, the concentration needed to bring the measured effect to its halfway point – in test [1] was 3 ng/mL. In test [2], this substance registered an IC50 1 hr Pre-incubation, TNF induced apoptosis in MCF-7 cells of 0.0034 nM; an IC50 18 hr Pre-incubation, TNF induced apoptosis in MCF-7 cells of 0.0022 nM; an In vivo Potency (IC50), ALT, hTNFα/D-GalN hepatic injury in mice of 27 nM; an In vivo Potency (IC50), human TNFα-induced IL-6 in mice of 27 nM.
In test [3], irrelevant human IgG1 control antibody showed an ADCC (%) of 2% and a CDC (%) of 2%.
